According to the DeepSol protein solubility set:

Test: soluble on expression in E. coli; label from the status in PepcDB or PDB records

| Sequence | soluble on expression in E. coli |
| --- | --- |
| MRKVTVSLIKADVGSVAGHTTVPDELKKAAEENLKNAVDSGLIIDFRVFNAGDDLELLMTHDKGVDSEEIHRLAWETFEKAAGIAKELKLYGAGQDLLKDAFSGNVRGLGPGVAEMEFTERKAEPVIAFMMDKTEPGAFNMPIFRMFADPFNTAGLVIDPTMHQGFVFEIWDIKESKRVFMRTPEEMYDILALIGGKSRFVIKRVYPKEGGKLPADEPVAVISTEKLYEVAGEYVGKDDPVALVRAQSGLPAVGEVLEPFAFPHLVSGWMRGSHNGPIMPVPFKYSKCTRFDGPPRCIAAGFQLANGKIIGPVDMFDDPAFDYTRQKAMEIAEYMRRHGPFEPHRLPSEDMEYTTLPKVLEKLKGRFEEV | not soluble |
| MRLALFDLDNTLLGGDSDHAWGDYLYQRGILDAATYKSRNDEFYQDYLAGTLNMTDYLNFTLEILGNTDMAQLQEWHREFMRDCIEPIMLPKALELIAKHREAGDKLVVITATNRFVTAPIVARLGIETLLATECEMVDGRYTGRTTGVPCFREGKVTRLNQWLEDNAFSLEDSYFYSDSMNDLPLLEQVANPVAVDPDARLRAEAEQRGWPVITLRS | not soluble |
| MRLERTFDPNDLSTQNMESPICLPIGFVHFLAQSQTLQQVLDTVAEWINRIFESDRTSITLYENSDYLKVYSFSGNKAIPADFLVPIDQAFVGRVFKNQQLIICDDVSQSDELDCVMLTSSGMGTCMDAPLMHGQMCLGTLNVAHHQTHFYTKEQAAQLQCIANWIALNI | not soluble |
| MRLFFSLLILLSFFARATEPVQVFTDDLGRKVTVPAHPKRIVSLHDLDITIPLIELGVPPVASHGRTRPDGSHFIRSGALLTGVDFDNSSIAFIGTADIDIEAIVAAKPDLIITEPTRNTPIERLEKIAPTVSIDHLKGGAPEIYRKLAELTGTQSQLAILERRYQAQINALKATLDSQKITVSVIQANQGKINVMHSYHSLGRVLRDAGFRFPPLIESIPEGGRMDVSAERLPELDADFVFATWRGDTGGKPQDELAAMEKVMPGWCQFLTACRSGRYVLISREEAISNSFASLGLMAAQIQSQIAGRPLPEAK | soluble |
| MRLKKLPIRRKMPMELAYIEKLFREEVGLDIKEHKDKAEQISETVVEIYEELLRKGIENANYNGRDYVSYYDLPITEDLERYMNRFIQDRGEEVLKAFVDYLAKLEEELLKAEEALPPLDEELHQKKADILGGIMLMFASVAKQINGDRKLYAESIPVTREVLRTMI | not soluble |
| MRLLIITGISGAGKSLVVKYLEDIGFFCVDNLPPLLIGKFAEICLKSRGKISKVALVIDIRGGELFNDLVPELNALKESGIDYEILFLEASDQVLIKRYKESRRIHPLAPEGRLIKGIKTEREILSQIRKNATYIIDTSNLTPRQLKEEILAIFVEGRKFDGMIVNIISFGFKYGIPIECDLVFDVRFIPNPYYIESMKYKTGKDEEVRNYVMSFAETAEFMTKLKDLVDFLIPNYIKEGKSQLVIGVGCTGGRHRSVAISEALFSYLCGREHRVFIDHRDIDKDGRSNRR | soluble |
| MRLNFAYPATGLQKSFEVDEEKKLRLFFEKRMSQEVAIDALGDEWKGYVVRIGGGNDKQGFPMKQGILTNGRVRLLLKKGQSCYRERKNGERKRKSVRGCIVDANMSALSLVIVKKGDGEIEGLTDSVLPRKLGPKRASKIRKLFNLTKHDDVTKYVITHDKTFPDGVTKTIAPKIQRLITPARIARKKYLLRQKRNQKIKMRDDAAAYHKLLAKYSKEEHDAKIARRRSSASHHSESEVKKTSKK | not soluble |
| MRPEERRRHILELLRQRERISVDELARTLSTSQETIRRDLAALAEQGLVSKFHGGAALPPSGEHENAFQTRMNEHAQEKRAVARYAAGLFGPGDSIFIDTGTTTLLFARELARQSHLTVITNSLLIAGSVGASGNRAFMIGGEYRPESEQNVGALAIEQIARFNAEHAVITVGALNGDGAMDFSIEEAEIARAMIAQARQLTVIADSSKLGRRALFQVFPLSRINRLVVDRKPTGELWEALQQARVEVHEAPLRTPQALEHHHHHH | not soluble |
| MRPMGHAESVMSRFAHRVKSRRSWKDQGLRAFLKAMVARIDGIRWRKGPLEAEEPQSAVSASTKSKRIEQAKRKAGRLWADVVRQNLPCLQQSSGTPIHQALSALRDGGWV | not soluble |
| MRPRRSLLSVPAINIRALEKIRELDCDGVILDLEDSVAPDMKGKARENLEKLFSGPPFDGRETIIRINPLSTPDGKADLQLVLSCRPDAVLLPKVEQPSDIHDVADFLAEADAPEHLKIWAMIETPLGVLNAASIADAAHTPNARLAAFVIGLNDLRKETHVPRLPGRTYLVPWMMQVILAARAYGLDVIDSVSNDFRDIEAFEAECEQGRAMGFDGKMLIHPAQIEAANRHFGPDEATLAEARAIIAAFAKPESVELNIINMNGQMIERLHVGQAERLVAMADIIAQRKAKKT | not soluble |
| MRPSAPAISRQTLLDEPRPGSLTIGYEPSEEAQPTENPPRFSWLPDIDDGARYVLRISTDPGFTDKKTLVFEDLAWNFFTPDEALPDGHYHWCYALWDQKSATAHSNWSTVRSFEISEALPKTPLPGRSARHAAAQTSHPRLWLNSEQLSAFADAVAKDPNHCGWAEFYEKSVEPWLERPVMPEPQPYPNNTRVATLWRQMYIDCQEVIYAIRHLAIAGRVLGRDDLLDASRKWLLAVAAWDTKGATSRAYNDEAGFRVVVALAWGYDWLYDHLSEDERRTVRSVLLERTREVADHVIAHARIHVFPYDSHAVRSLSAVLTPACIALQGESDEAGEWLDYTVEFLATLYSPWAGTDGGWAEGPHYWMTGMAYLIEAANLIRSYIGYDLYQRPFFQNTGRFPLYTKAPGTRRANFGDDSTLGDLPGLKLGYNVRQFAGVTGNGHYQWYFDHIKADATGTEMAFYNYGWWDLNFDDLVYRHDYPQVEAVSPADLPALAVFDDIGWATIQKDMEDPDRHLQFVFKSSPYGSLSHSHGDQNAFVLYAHGEDLAIQSGYYVAFNSQMHLNWRRQTRSKNAVLIGGKGQYAEKDKALARRAAGRIVSVEEQPGHVRIVGDATAAYQVANPLVQKVLRETHFVNDSYFVIVDEVECSEPQELQWLCHTLGAPQTGRSSFRYNGRKAGFYGQFVYSSGGTPQISAVEGFPDIDPKEFEGLDIHHHVCATVPAATRHRLVTLLVPYSLKEPKRIFSFIDDQGFSTDIYFSDVDDERFKLSLPKQF | soluble |
| MRPSSRSAGRRTSMRLTTRDFDRTGRPLRFTELGFGSSPLGNLYRAISEEEAQALLERAWAGGIRYFDTAPLYGYGLAEERLGRFLAGHPRSDYVLSTKVGRLLRPVEPGEARDGLGKFFEVPERKERFDYGYDGVMRSLEASLDRLGLDRVDVLYAHDLDLFTHGSQEALEARLAEFMAGGYRALVELRDQGVISAFGAGVNEWQPCQWLAERGEFDLFLLAGRYTLLEQEALESFLPLAEERGIGIVIGGPYNSGVLATGPKPGSFYDYRLAPQAVLDRVAQIHTICERWGVRMFEAAFQFPLRHPAVLSVIPGPQSVGEVMENRIAADAELPPGLWEDLKVAGLLRPDAPV | not soluble |
| MRQWTAIHLAKLARKASRAVGKRGTDLPGQIARKVDTDVLRKLAEQVDDIVFISGTNGKTTTSNLIGHTLKANNIQIIHNNEGANMAAGITSAFIMQSTPKTKIAVIEIDEGSIPRVLKEVTPSMMVFTNFFRDQMDRFGEIDIMVNNIAETISNKGIKLLLNADDPFVSRLKIASDTIVYYGMKAHAHEFEQSTMNESRYCPNCGRLLQYDYIHYNQIGHYHCQCGFKREQAKYEISSFDVAPFLYLNINDEKYDMKIAGDFNAYNALAAYTVLRELGLNEQTIKNGFETYTSDNGRMQYFKKERKEAMINLAKNPAGMNASLSVGEQLEGEKVYVISLNDNAADGRDTSWIYDADFEKLSKQQIEAIIVTGTRAEELQLRLKLAEVEVPIIVERDIYKATAKTMDYKGFTVAIPNYTSLAPMLEQLNRSFEGGQS | not soluble |
| MRRGLAWVGALLLLGGCVSSRPIDEIQIIQQMGYDFENGRYTGTAVYPTFKQGPMTKPNMLTTTSPTIYDLIPRLSSKSALPIEEGQLRLILFGKEFARRGVTQITHSLARNNKVGSHLLLGVAEESAKELLKITAKTTLSDTLYLPNLVEQNEQSMNLPKTNLHLFLYRYFSPGSDPFLPYFEKKGDFVKLEGVALFRDDQYVGHVSLRDSFLMKILLGETKNGVYQLKVGNRGKQGEDRVMLQNLWAKPKYAWKRDGSRHVLDVFIHIHASVRDYPSWLDQPGGDLFADVKKKMQNELEHNMRRLFRYFQKKRIDPLGIGDFVRSVTRHWDSDAFYREYPDLDIRPHVTVDIVHTGIGE | not soluble |
| MRRVSINSFLEPNSPNVPNRVTIPDGDLRRNSDDTATDRISLTNQLGKSAYSTTTEDSIDSETSETRMDSSRTSEISGNVKEDPVSENQYVLENSESSESIVVDLEMPGMTLRSKASPRKRYMSKKEKDLNDEKKNFKDLVLTIGQNQIQDPDEDFQITKEAIDLLQSESDKILLEMFTSSNAIATAGERDILTPTDIQTARHIQMIMKKYKK | not soluble |
| MRRVVVTGLGALTPIGVGQEAFHKAQLAGKSGVRPITRFDASALPVRIAAEVDVDPGAYLDRKELRRLDRFVQYALIAAQLALEDAGLKPEDLDPERVGTLVGTGIGGMETWEAQSRVFLERGPNRISPFFIPMMIANMASAHIAMRYGFTGPSSTVVTACATGADALGSALRMIQLGEADLVLAGGTEAAITPMAIGAFAVMRALSTRNEEPEKASRPFTLSRDGFVMGEGAGVLVLEAYEHAKKRGARIYAELVGFGRSADAHHITEPHPEGKGAALAMARALKDAGIAPEQVGYINAHGTSTPVGDRAEVLAIKRVFGDHAKRLMVSSTKSMIGHLLGAAGAVEAIATVQALYHGVIPPTINLEDPDPELDLDFVPEPREAKVDYALSNSFAFGGHNAVLAFKRV | soluble |
| MRSAVTFFTFFLDKAEPISTRDTSSESIIPEQEKRRDDMRAVVLVPFLKQQRENRDAASAPAAPGRSVEAKLEEAKGLALAIDLEVTQGLVVPVNQPRPATLFGTGKIEEIGHLLDETNSGLVIVDHPLTPVQQRNLESSGTPRLSTAPVAAALEHHHHHH | not soluble |
| MRSGKIFHHFDQWGIIIRKDMLKQLALFIALFGAVTAWNRQNHFGNPCYLCSCFTVYTDRDVAVPLRPYAMAIDGYDTTEDRCLATCQRDQRCRAAVYGMVGGRSVFTCEFYEKFNTKSVPVYTTYVNMYMKRSSECKLPIAHLSSIEMIPADNSSLKRRAKLEKLIGRKNPFLG | not soluble |
| MRSHNLFGDMCEAFMTKYVMTELRPKTQTLYKSTFNKYVTPYKNIDIERYKYTDWIAYFDWVKKESSSANAGSVLKRFKAVANWAKARGQIKHSHLIDIPIKLEHHHHHH | not soluble |
| MRSIPLCQLLLLLTILSIDARPSDHFLSFSKTELCAAEPHLKVCQPNSRAQSSKIINGDGLTAERLEQLSKHSNKGFIEEEANSGRSSAASNVDDPFEDVATRAPPSSNEYEEERYSHRKHKHHHRKSHRGHHYGSPYQQYYQQQQHHDPLTYRVYPGLHPKDGRYCSDMKGMFAYTCAPSKPLRIDLVEFCKDYAAFCNVPNFHRLPGPRMGPPLTDKGVGHVDVNGHFGFGVGAVPGLEVGVGWGVDVGPIPGMGESVGVGVGLDLGIMGSKTPEAFRRGQDDPNAKGGGIVGINGGVGVKAPGTGDGVGVGTGLGVGK | not soluble |
